Measured values as given in the RNAGym collection of RNA variant scans (doi:10.1073/pnas.2313332121).

B1: TPR t1 (parent)
chain: GACCAAUCUGCCCUCAGAGCUCGAGAACAUCUUCGGAUGCAGAGGAGGCAGGCUUCGGUGGCGCGAUAGCGCCAACGUCCUCAACCUCCAAUGCAUCCCACCACAUGAUGAUGCCUGAAGAGCCUUGGUUUUUUG

Variants of: B1
Assay: polymerase ribozyme fitness, log enrichment relative to wild type (log ratio); higher = more active; in vitro selection for triplet polymerase activity
Outline: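 Mutant libraries for each subunit of a heterodimeric triplet polymerase ribozyme were made by PCR and then transcribed. Each library underwent one round of in vitro selection in triplicate: annealing with a biotinylated primer, the partner subunit and triplets, frozen incubation at −7 °C, gel excision of extended constructs, streptavidin-bead capture and RT-PCR. Input and output libraries were Illumina-sequenced, and only genotypes with ≥10 input reads and ≥1 read per output were kept. Fitness is the logarithm, base 2, of genotype enrichment over wild-type enrichment, computed from inverse-variance-weighted replicate averages.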

Variant	polymerase ribozyme fitness (log ratio)
C70G C94U	-3
C70U C82G C124A U130C	0.602
G71A U131G	-1.27
G69U C86G	0.0893
G71C G113U	-2.72
G69A G135A	-3.3
G71A G120A	-0.000691
A68U A121U	-6.36
A68U A121G	-6.65
C70G C85A U106A U130A	-4.47
C70U C88G U125G	-1.36
C72A A91C G117C	-4.28
G69U C102G	-2.76
G69U A103G U106A	-4.7
G71U A121U	2.07
C70G U92C	-4.9
G71A U106G	-2.73
G71A U106A	-0.841
C70A A84U	-0.795
A68U U109A U129G	-7.47
G71U C82G G117A	-2.4
G71A G110A	-2.14
C70U C115A	0.108
C70U C115G	-2.23

Variant	polymerase ribozyme fitness (log ratio)
A68U G120A	-3.93
A68U G120C	-5.33
C70A G117U	-4.09
G71U U87C	-0.194
G69A C102U	-4.72
C70A C86A	-2.39
C70U U96A G120A	-0.134
G69U U78G C79A U116A U129G	-5.04
C70A G128C	-4.69
G69U C104A G113C	-1.8
C70U G110U	-2.59
G69C A83U C99A C102A	-6.91
C70U C97U C101U C102A	-4.84
G69C C123A	-0.685
C72A C73A	-0.947
G69A A75G U96C	-3.29
C70U C97U C123G U126A	-0.00382
C70U U81C U96C	-1.2
C72A A118U	0.818
G69U C94U C101A	-0.271
C72A U87A	0.169
G69C U81C C88U U106C	-2.4
C70U U78C U129G	-1.5
C70U U78C U129A	-1.77

Variant	polymerase ribozyme fitness (log ratio)
C70A U130G	-2.49
C70G U130G U131G	-4.28
G69U C98A	-2.07
G69C G113A C114A U125A U133A	-4.08
G71A G110A C115U	-5.43
G69A U81G A84C G93U C97G U112A	-6.86
G69U C115G	-0.0637
C70U C80A U87A	-5
G69C U106A	-1.14
G69C C88U	-1.17
C70A C72G C102A C104A	-6.86
C70U A105G G113A	-4.28
C70A U87G	-1.73
G71C U78A	-0.14
G69A G110A	-3.77
G69A G110C	-6.02
G71U U81A C123A	-1.04
G69A C70U C124A	-4.91
G71A C98U C101A	-3.15
G69C G135U	-2.29
G69C G135A	-1.9
G71C G93U C104U A119G	-1.16
G71A G113C	-2.6
C72A C85G G93A U106C	-1.13

Variant	polymerase ribozyme fitness (log ratio)
A68G U129G	-4.32
A68G U129A	-4.01
C70A G110A U133A	-3.64
A68G C115U	-3.75
G69U G93U U109C	-4.75
G69U C82G C89A	-1.32
G71A C114G	-3.49
C70U A111G	0.0643
G69A C73A C82A G120A G128A	-3.86
G71U C99A	-7.48
C70U G120U	0.0972
C70A C115U	-2.84
G69C U78C U106A	-2.46
C70G C72G G110U	-6.42
G69U C79G	-1.63
C72A	0.126
C70A U109C	-4.18
C70A U109G	-5.72
C70U C114A	-2.33
G69U C70G C88U C115A	-0.11
G69U A111G	1.89
G71A U87G A103C U106C C124G	-3.7
G71C C89G U130C	-4.18
G69C G120A	-0.926

Variant	polymerase ribozyme fitness (log ratio)
C70A A91G	-2.74
G69C G128C	-3.85
G71A C89U A111U U112A C123A G127C	-2.37
C70U A95G	-0.166
C72A C86A	-0.267
G69A C89U C123G	-2.85
C70U G117A	-1.99
C70G G93C	-4.94
C70G G93A	-4.33
G69C C115U G128A	-4.75
C70G C72U	-2.61
G71C U96G G120U	-1.37
G71U G110U	-1.24
C70A C88G U125G	-3.18
A68G U78C	-3.07
G69A C101A U132A	-3.65
G69U U87C C104A	-0.553
C72A A103U C124G U131C	-2.63
C70G U96C	-2.6
C70G C104U G127C	-2.51
C70U C80U G113C A119G	-3.1
C70U A90G U106A	0.297
C70G G117U	-4.3
G69A C88A C123G C124A G135U	-3.37

Variant	polymerase ribozyme fitness (log ratio)
A68G G71A C101U	-5.85
G69U C99G	-6.24
G69U C99A	-3.23
C72A C89U	-0.157
C72A C89A	-0.502
A68G C114A	-3.39
C70A C86G C102A	-4.88
G71C C124A	-0.102
G71C C123U	-0.362
C70U C97A G113C A119U G127C	-5.36
G71U C124A	2.05
G71A C82U G110U	-2.94
G69U C104G	-4.34
G69U C104A	-0.638
G69U G93C A95U A103U C114U	-3.98
C70G U130A	-3.16
G69A U106C C114A G120C	-3.12
G69U A103C	-1.85
C70U C80A A95G A111G	-5.34
C70U A90G C101A C123A	-1.13
G71U A74G	-5.51
G71U U81G A111U	-6.76
C72A U81G G110U	-6.47
C70U C85U U126A	-3.11

Variant	polymerase ribozyme fitness (log ratio)
G69C C86A C94U C114U	-6.26
G69U U78C A84G G122A G128A	-3.23
C70A C114A	-2.64
C70U U78C	-1.4
C70U U78G	-0.747
G71A G117U	-2.33
C70A U96A	-2.63
G69A U129G	-3.2
C70A C104A	-3.24
G69C C115A	-0.724
G69C C115U	-1.75
C72A C114U	-1.24
G69A G77C C94U	-4.05
G71A U92A A95U	-4.72
G71U A75U C98U	-2.02
C70U C82U A83C C89A G93A	-4.1
G69U U81C	0.131
G69C G122A	-1.53
C72A C98A U131A	-5.63
C70G U129C	-3.02
C70U A75G	-0.621
G71U C97U U112A	1.1
A68G U132A	-3.13
